According to PMC11531568, “Single-molecule imaging and molecular dynamics simulations reveal early activation of the MET receptor in cells” (Nature Communications, 2024):

B1: InlB321 K280C variant (with C242A), fluorophore-labeled (domain or fragment)
chain: ETITVPTPIKQIFSDDAFAETIKDNLKKKSVTDAVTQNELNSIDQIIANNSDIKSVQGIQYLPNVTKLFLNGNKLTDIKPLANLKNLGWLFLDENKVKDLSSLKDLKKLKSLSLEHNGISDINGLVHLPQLESLYLGNNKITDITVLSRLTKLDTLSLEDNQISDIVPLAGLTKLQNLYLSKNHISDLRALAGLKNLDVLELFSQEALNKPINHQSNLVVPNTVKNTDGSLVTPEIISDDGDYECPNVKWHLPEFTNEVSFIFYQPVTIGKAKARFHGRVTQPLKE
modifications: Cy3B or ATTO 647N attached by maleimide chemistry to the single cysteine at position 280
notes: Internalin B (InlB), invasion protein of Listeria monocytogenes, amino acids 36-321 of the full-length InlB (cap, leucine-rich repeat and inter-repeat region); The donor-labeled (Cy3B) and acceptor-labeled (ATTO 647N) batches of this variant are written as one molecule; Vector pETM30; also called T variant; tail
B2: InlB321 K64C variant (with C242A), fluorophore-labeled (domain or fragment)
chain: ETITVPTPIKQIFSDDAFAETIKDNLKKCSVTDAVTQNELNSIDQIIANNSDIKSVQGIQYLPNVTKLFLNGNKLTDIKPLANLKNLGWLFLDENKVKDLSSLKDLKKLKSLSLEHNGISDINGLVHLPQLESLYLGNNKITDITVLSRLTKLDTLSLEDNQISDIVPLAGLTKLQNLYLSKNHISDLRALAGLKNLDVLELFSQEALNKPINHQSNLVVPNTVKNTDGSLVTPEIISDDGDYEKPNVKWHLPEFTNEVSFIFYQPVTIGKAKARFHGRVTQPLKE
modifications: Cy3B or ATTO 647N attached by maleimide chemistry to the single cysteine at position 64
notes: Internalin B (InlB), invasion protein of Listeria monocytogenes, amino acids 36-321 of the full-length InlB (cap, leucine-rich repeat and inter-repeat region); The donor-labeled (Cy3B) and acceptor-labeled (ATTO 647N) batches of this variant are written as one molecule; Vector pETM30; also called H variant; head

Biological target: the molecule itself
Assay: single-molecule photobleaching step analysis; U-2 OS cells labeled with a single Cy3B-labeled InlB321 variant; number of InlB321 in one spot on the plasma membrane

Row | Protein | stoichiometry N
1 | B1 | 2
2 | B2 | 2
